Measured values taken from US20090226456A1 (published 2009).

Key:
Assay in all cases: flow cytometry on transiently transfected cells
[1] = target: T1, TNFR2 on transiently transfected cells (human, UniProt P20333 23-461)
T1 sequence: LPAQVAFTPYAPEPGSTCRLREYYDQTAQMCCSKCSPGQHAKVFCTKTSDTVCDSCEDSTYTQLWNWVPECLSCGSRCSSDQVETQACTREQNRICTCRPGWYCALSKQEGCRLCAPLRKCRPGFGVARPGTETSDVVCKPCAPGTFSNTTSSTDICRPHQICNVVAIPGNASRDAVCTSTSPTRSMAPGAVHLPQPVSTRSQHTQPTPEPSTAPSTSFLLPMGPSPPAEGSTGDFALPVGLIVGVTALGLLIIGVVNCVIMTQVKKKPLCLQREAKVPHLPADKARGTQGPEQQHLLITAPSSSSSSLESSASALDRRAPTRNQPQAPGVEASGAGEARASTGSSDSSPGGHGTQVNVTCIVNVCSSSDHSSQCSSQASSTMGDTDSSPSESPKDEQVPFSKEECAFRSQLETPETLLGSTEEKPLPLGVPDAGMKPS
Protocol: (§1) One million cells, in 0.1 ml of FACS buffer (PBS, 0.1% BSA, 0.1% NaN₃), were incubated with 0.1-1 microgram of protein or antibody at RT for 15 min. The cells were washed with 3 ml of FACS buffer, reacted with biotinylated primary antibody, and stained with PE-conjugated secondary antibody at RT for 15 min. Cells were then washed again, resuspended in 0.5 microgram/ml of propidium iodide, and live cells were gated and analyzed on a FACScan using the CellQuest software (BD Biosciences).

[2] = target: T2, 4-1BB on transiently transfected cells (UniProt Q07011 24-255)
T2 construct: whole, on cells
T2 sequence (Q07011 24-255): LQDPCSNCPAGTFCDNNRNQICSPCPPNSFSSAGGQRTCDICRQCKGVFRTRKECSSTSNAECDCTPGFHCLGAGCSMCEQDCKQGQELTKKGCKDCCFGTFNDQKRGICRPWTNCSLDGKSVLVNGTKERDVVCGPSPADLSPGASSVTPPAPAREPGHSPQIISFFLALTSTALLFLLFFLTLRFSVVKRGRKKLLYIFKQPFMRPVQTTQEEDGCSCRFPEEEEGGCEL
Protocol: as §1

[3] = target: T3, CD27 on transiently transfected cells (UniProt P26842 20-260, limits assumed)
T3 construct: whole, on cells
T3 sequence (looked up): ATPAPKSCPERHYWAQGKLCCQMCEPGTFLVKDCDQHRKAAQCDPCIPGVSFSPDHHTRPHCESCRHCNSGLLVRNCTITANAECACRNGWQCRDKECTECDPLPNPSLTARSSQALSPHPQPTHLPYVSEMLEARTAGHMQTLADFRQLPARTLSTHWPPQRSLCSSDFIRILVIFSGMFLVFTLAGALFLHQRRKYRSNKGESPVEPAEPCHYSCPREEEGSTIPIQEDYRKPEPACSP
Protocol: as §1

[4] = target: T4, DR4 on transiently transfected cells (UniProt O00220 24-468, limits assumed)
T4 construct: whole, on cells
T4 sequence (looked up): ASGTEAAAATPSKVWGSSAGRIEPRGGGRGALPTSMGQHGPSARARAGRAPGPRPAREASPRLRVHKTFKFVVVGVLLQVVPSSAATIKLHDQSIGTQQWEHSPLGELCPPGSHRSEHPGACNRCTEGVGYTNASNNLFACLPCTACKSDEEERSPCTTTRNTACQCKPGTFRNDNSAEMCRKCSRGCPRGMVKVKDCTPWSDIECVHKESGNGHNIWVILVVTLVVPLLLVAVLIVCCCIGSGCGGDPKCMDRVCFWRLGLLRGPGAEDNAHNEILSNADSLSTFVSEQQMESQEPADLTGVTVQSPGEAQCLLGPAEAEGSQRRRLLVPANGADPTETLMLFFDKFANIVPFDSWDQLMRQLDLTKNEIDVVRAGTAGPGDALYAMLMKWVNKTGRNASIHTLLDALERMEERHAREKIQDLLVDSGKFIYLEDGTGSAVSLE
Protocol: as §1

[5] = target: T5, DR5 on transiently transfected cells (UniProt O14763 56-440, limits assumed)
T5 construct: whole, on cells
Protocol: as §1

[6] = target: T6, DcR1 on transiently transfected cells (UniProt O14798 26-236, limits assumed)
T6 construct: whole, on cells
T6 sequence (looked up): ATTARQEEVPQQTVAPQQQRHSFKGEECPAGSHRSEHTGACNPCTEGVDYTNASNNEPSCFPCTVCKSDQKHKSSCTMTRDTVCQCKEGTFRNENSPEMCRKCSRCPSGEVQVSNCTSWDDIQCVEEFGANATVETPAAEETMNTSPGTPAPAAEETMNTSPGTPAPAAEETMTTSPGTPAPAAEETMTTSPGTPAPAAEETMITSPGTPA
Protocol: as §1

[7] = target: T7, HveA on transiently transfected cells (Homo sapiens (Human), UniProt Q92956 39-283)
T7 construct: also called HVEM/TR2
T7 sequence: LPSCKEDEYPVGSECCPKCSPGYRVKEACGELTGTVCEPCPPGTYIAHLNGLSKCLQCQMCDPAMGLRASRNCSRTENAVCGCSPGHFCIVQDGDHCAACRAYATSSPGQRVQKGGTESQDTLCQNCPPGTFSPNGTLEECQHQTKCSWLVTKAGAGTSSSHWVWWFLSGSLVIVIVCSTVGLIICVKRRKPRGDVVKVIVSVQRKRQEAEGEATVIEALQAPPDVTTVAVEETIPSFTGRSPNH
Protocol: as §1

[8] = target: T8, AITR on transiently transfected cells (UniProt Q9Y5U5 26-241, limits assumed)
T8 construct: whole, on cells
T8 sequence (looked up): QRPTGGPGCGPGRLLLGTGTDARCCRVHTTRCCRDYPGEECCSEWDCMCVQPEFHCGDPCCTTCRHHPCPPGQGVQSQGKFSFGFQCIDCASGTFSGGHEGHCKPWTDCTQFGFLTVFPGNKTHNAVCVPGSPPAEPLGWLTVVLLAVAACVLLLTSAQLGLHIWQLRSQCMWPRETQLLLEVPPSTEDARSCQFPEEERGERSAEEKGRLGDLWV
Protocol: as §1

Measured: binding result

B1: FLAG-tagged soluble TNF-gamma-beta (aa 72-251) (ligand, human)
chain: DYKDDDDKLKGQEFAPSHQQVYAPLRADGDKPRAHLTVVRQTPTQHFKNQFPALHWEHELGLAFTKNRMNYTNKFLLIPESGDYFIYSQVTFRGMTSECSEIRQAGRPNKPDSITVVITKVTDSYPEPTQLLMGTKSVCEVGSNWFQPIYLGAMFSLQEGDKLMVNVSDISLVDYTKEDKTFFGAFLL
notes: also called FLAG-TNF-gamma-beta; FLAG-TL1β
no binding: all assays above
